According to US20140087995A1 (published 2014):
Numbered stars: 1 amine (or outer) side, 2 acyl side, 3 side chain; on linkers, the order of the positions; unused ones are H or OH. Bridge positions count the residues as written; N and C are the ends. Side chains are listed from the residue outwards. Ends that are not written are not given here. * marks the point of attachment. C20 diacid = O=C(O)CCCCCCCCCCCCCCCCCCC(=O)*; γGlu = O=C(O)[C@H](CCC(=O)[*:2])N[*:1]; AEEA = NCCOCCOCC(=O)O

T1: human calcitonin receptor (human, UniProt P30988 25-474)
T1 construct: whole, on cells; also called hCTR; hCT
T1 sequence (looked up): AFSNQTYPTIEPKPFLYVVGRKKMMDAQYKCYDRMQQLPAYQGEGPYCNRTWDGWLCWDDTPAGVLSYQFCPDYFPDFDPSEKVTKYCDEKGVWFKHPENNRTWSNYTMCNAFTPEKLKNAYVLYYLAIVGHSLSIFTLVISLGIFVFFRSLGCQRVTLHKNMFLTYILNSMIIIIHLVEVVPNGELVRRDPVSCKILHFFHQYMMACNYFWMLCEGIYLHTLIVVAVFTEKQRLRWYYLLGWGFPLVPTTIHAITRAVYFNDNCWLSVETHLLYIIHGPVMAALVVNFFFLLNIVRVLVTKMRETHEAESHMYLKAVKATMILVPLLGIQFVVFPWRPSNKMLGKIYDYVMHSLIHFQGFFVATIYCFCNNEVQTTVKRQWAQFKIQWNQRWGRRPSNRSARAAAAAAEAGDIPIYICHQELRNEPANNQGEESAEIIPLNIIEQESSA

T2: human calcitonin receptor (human, UniProt P30988 25-474)
T2 construct: whole, on cells; also called hCTR; hCT
T2 sequence (looked up): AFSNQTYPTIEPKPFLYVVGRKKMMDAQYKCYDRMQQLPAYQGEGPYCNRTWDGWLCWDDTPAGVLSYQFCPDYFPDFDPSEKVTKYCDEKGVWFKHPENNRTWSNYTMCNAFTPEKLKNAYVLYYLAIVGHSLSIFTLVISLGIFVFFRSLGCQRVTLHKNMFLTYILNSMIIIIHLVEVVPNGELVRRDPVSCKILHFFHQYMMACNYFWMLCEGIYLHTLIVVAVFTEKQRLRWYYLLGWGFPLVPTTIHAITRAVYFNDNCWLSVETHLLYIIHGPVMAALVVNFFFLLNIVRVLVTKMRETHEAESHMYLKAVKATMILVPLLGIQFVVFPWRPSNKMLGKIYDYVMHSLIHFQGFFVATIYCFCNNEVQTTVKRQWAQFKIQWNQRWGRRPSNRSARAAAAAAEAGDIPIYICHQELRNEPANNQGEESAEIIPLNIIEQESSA


How the values were obtained:
[1] = molecular target: T1, human calcitonin receptor; assay: SPA competition with 125I-calcitonin, membranes of BHK hCTR cells (Assay VII)
Summary of the method: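 BHK hCTR membranes 35 ng/μL + SPA beads 0.05 mg/well; buffer 50 mM Hepes pH 7.4, 1 mM CaCl2, 5 mM MgCl₂, 0.1% OA, 0.02% Tween20. 120 min, 25° C., shaking. Scintillation count; IC50 by one-site binding competition.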

[2] = molecular target: T2, human calcitonin receptor; assay: ratio of IC50 at hCTR to IC50 at the human amylin receptor (reference)
Method: The resulting pellet was resuspended, homogenized and centrifuged (20.000 rpm, 15 min) in a buffer containing 20 mM Na-HEPES and 0.1 mM EDTA (pH 7.4, buffer 2). The resulting pellet was resuspended in buffer 2 and protein concentration was measured (BCA protein Assay, Pierce). The homogenate was kept cold during the whole procedure. The membranes were kept at −80° C. until use. The assay was performed in a 384 well Optiplate (PerkinElmer) in a total volume of 40 ul. Membranes were mixed with SPA beads. Final concentration of membranes 35 ng/μL final and SPA beads was 0.05 mg/well. Test-compounds were dissolved in DMSO and further diluted in assay buffer (50 mM Hepes, pH 7.4, 1 mM CaCl2, 5 mM MgCl₂, 0.1% OA and 0.02% Tween20). […] The final mixture was incubated with shaking at 400 rpm for 120 min at 25° C. prior to centrifugation (1500 rpm, 10 min). Samples were analyzed on TopCounter™ (Packard). The IC₅₀ was calculated using (one site binding competition analysis) GraphPad Prism5 as a measure of receptor affinity.
Membranes were prepared in the following way; the cells were rinsed with PBS and incubated with Versene for approximately 5 min before harvesting. The cells were flushed with PBS and the cell-suspension was centrifuged for 5 min at 1000 rpm. Cells were homogenized (Ultrathurrax) in a buffer containing 20 mM Na-HEPES and 10 mM EDTA (pH 7.4) and centrifuged at 20.000 rpm for 15 min. The resulting pellet was resuspended, homogenized and centrifuged (20.000 rpm, 15 min) in a buffer containing 20 mM Na-HEPES and 0.1 mM EDTA (pH 7.4, buffer 2). The resulting pellet was resuspended in buffer 2 and protein concentration was measured (BCA protein Assay, Pierce). The homogenate was kept cold during the whole procedure. The membranes were kept at −80° C. until use. Assay was performed in a 384 well Optiplate (PerkinElmer) in a total volume of 40 ul. Membranes were mixed with SPA beads.

[3] = molecular target: T2, human calcitonin receptor; assay: SPA competition binding, membranes with human calcitonin receptor, displacement of 125I-calcitonin (Assay VII)
Method: Membranes were prepared in the following way; the cells were rinsed with PBS and incubated with Versene for approximately 5 min before harvesting. The cells were flushed with PBS and the cell-suspension was centrifuged for 5 min at 1000 rpm. Cells were homogenized (Ultrathurrax) in a buffer containing 20 mM Na-HEPES and 10 mM EDTA (pH 7.4) and centrifuged at 20.000 rpm for 15 min. The resulting pellet was resuspended, homogenized and centrifuged (20.000 rpm, 15 min) in a buffer containing 20 mM Na-HEPES and 0.1 mM EDTA (pH 7.4, buffer 2). The resulting pellet was resuspended in buffer 2 and protein concentration was measured (BCA protein Assay, Pierce). The homogenate was kept cold during the whole procedure. The membranes were kept at −80° C. until use. Assay was performed in a 384 well Optiplate (PerkinElmer) in a total volume of 40 ul. Membranes were mixed with SPA beads. Final concentration of membranes 35 ng/μL final and Final concentration of SPA beads was 0.05 mg/well. Test-compounds were dissolved in DMSO and further diluted in assay buffer (50 mM Hepes, pH 7.4, 1 mM CaCl2, 5 mM MgCl₂, 0.1% OA and 0.02% Tween20). […] The final mixture was incubated for 120 min with shaking at 400 rpm at 25° C. prior to centrifugation (1500 rpm, 10 min). Samples were analyzed on TopCounter™ (Packard). The […] was calculated using (one site binding competition analysis) GraphPad Prism5 as a measure of receptor affinity.

Binder | IC50 [1] | Ratio hCT/hAmylin binding [2] | IC50 [3]
K([γGlu-C20 diacid])CNTATCATQRLANFLRHSSPNFGAIPSSTNVGSNTY-NH2 (disulfide 2-7; N-terminus assumed; SMILES CC[C@H](C)[C@H](NC(=O)[C@H](C)NC(=O)CNC(=O)[C@H](Cc1ccccc1)NC(=O)[C@H](CC(N)=O)NC(=O)[C@@H]1CCCN1C(=O)[C@H](CO)NC(=O)[C@H](CO)NC(=O)[C@H](Cc1c[nH]cn1)NC(=O)[C@H](CCCNC(=N)N)NC(=O)[C@H](CC(C)C)NC(=O)[C@H](Cc1ccccc1)NC(=O)[C@H](CC(N)=O)NC(=O)[C@H](C)NC(=O)[C@H](CC(C)C)NC(=O)[C@H](CCCNC(=N)N)NC(=O)[C@H](CCC(N)=O)NC(=O)[C@@H](NC(=O)[C@H](C)NC(=O)[C@@H]1CSSC[C@H](NC(=O)[C@@H](N)CCCCNC(=O)CC[C@H](NC(=O)CCCCCCCCCCCCCCCCCCC(=O)O)C(=O)O)C(=O)N[C@@H](CC(N)=O)C(=O)N[C@@H]([C@@H](C)O)C(=O)N[C@@H](C)C(=O)N[C@@H]([C@@H](C)O)C(=O)N1)[C@@H](C)O)C(=O)N1CCC[C@H]1C(=O)N[C@@H](CO)C(=O)N[C@@H](CO)C(=O)N[C@H](C(=O)N[C@@H](CC(N)=O)C(=O)N[C@H](C(=O)NCC(=O)N[C@@H](CO)C(=O)N[C@@H](CC(N)=O)C(=O)N[C@H](C(=O)N[C@@H](Cc1ccc(O)cc1)C(N)=O)[C@@H](C)O)C(C)C)[C@@H](C)O, also called compound 48) [N^ε1-[(4S)-4-carboxy-4-(19-carboxynonadecanoylamino)butanoyl]-[Arg17,Pro21,Pro27]-h-amylin] | 30.9 nM | – | –
{C20 diacid-γGlu}-GRCNTATCATQRLANFLRHSSPNFGAIPSSTNVGSHTY-NH2 (disulfide 3-8; SMILES CC[C@H](C)[C@H](NC(=O)[C@H](C)NC(=O)CNC(=O)[C@H](Cc1ccccc1)NC(=O)[C@H](CC(N)=O)NC(=O)[C@@H]1CCCN1C(=O)[C@H](CO)NC(=O)[C@H](CO)NC(=O)[C@H](Cc1c[nH]cn1)NC(=O)[C@H](CCCNC(=N)N)NC(=O)[C@H](CC(C)C)NC(=O)[C@H](Cc1ccccc1)NC(=O)[C@H](CC(N)=O)NC(=O)[C@H](C)NC(=O)[C@H](CC(C)C)NC(=O)[C@H](CCCNC(=N)N)NC(=O)[C@H](CCC(N)=O)NC(=O)[C@@H](NC(=O)[C@H](C)NC(=O)[C@@H]1CSSC[C@H](NC(=O)[C@H](CCCNC(=N)N)NC(=O)CNC(=O)CC[C@H](NC(=O)CCCCCCCCCCCCCCCCCCC(=O)O)C(=O)O)C(=O)N[C@@H](CC(N)=O)C(=O)N[C@@H]([C@@H](C)O)C(=O)N[C@@H](C)C(=O)N[C@@H]([C@@H](C)O)C(=O)N1)[C@@H](C)O)C(=O)N1CCC[C@H]1C(=O)N[C@@H](CO)C(=O)N[C@@H](CO)C(=O)N[C@H](C(=O)N[C@@H](CC(N)=O)C(=O)N[C@H](C(=O)NCC(=O)N[C@@H](CO)C(=O)N[C@@H](Cc1c[nH]cn1)C(=O)N[C@H](C(=O)N[C@@H](Cc1ccc(O)cc1)C(N)=O)[C@@H](C)O)C(C)C)[C@@H](C)O, also called compound 47) | 15.5 nM | – | –
{C20 diacid-γGlu}-GRCNTATCATQRLANFLRHSSPNFGAIPSSTNVGSNTY-NH2 (disulfide 3-8; SMILES CC[C@H](C)[C@H](NC(=O)[C@H](C)NC(=O)CNC(=O)[C@H](Cc1ccccc1)NC(=O)[C@H](CC(N)=O)NC(=O)[C@@H]1CCCN1C(=O)[C@H](CO)NC(=O)[C@H](CO)NC(=O)[C@H](Cc1c[nH]cn1)NC(=O)[C@H](CCCNC(=N)N)NC(=O)[C@H](CC(C)C)NC(=O)[C@H](Cc1ccccc1)NC(=O)[C@H](CC(N)=O)NC(=O)[C@H](C)NC(=O)[C@H](CC(C)C)NC(=O)[C@H](CCCNC(=N)N)NC(=O)[C@H](CCC(N)=O)NC(=O)[C@@H](NC(=O)[C@H](C)NC(=O)[C@@H]1CSSC[C@H](NC(=O)[C@H](CCCNC(=N)N)NC(=O)CNC(=O)CC[C@H](NC(=O)CCCCCCCCCCCCCCCCCCC(=O)O)C(=O)O)C(=O)N[C@@H](CC(N)=O)C(=O)N[C@@H]([C@@H](C)O)C(=O)N[C@@H](C)C(=O)N[C@@H]([C@@H](C)O)C(=O)N1)[C@@H](C)O)C(=O)N1CCC[C@H]1C(=O)N[C@@H](CO)C(=O)N[C@@H](CO)C(=O)N[C@H](C(=O)N[C@@H](CC(N)=O)C(=O)N[C@H](C(=O)NCC(=O)N[C@@H](CO)C(=O)N[C@@H](CC(N)=O)C(=O)N[C@H](C(=O)N[C@@H](Cc1ccc(O)cc1)C(N)=O)[C@@H](C)O)C(C)C)[C@@H](C)O, also called compound 46) [N^-1-[(4S)-4-carboxy-4-(19-carboxynonadecanoylamino)butanoyl]-Gly[Arg1,Arg17,Pro21,Pro27]-h-amylin] | 9.53 nM | – | –
K([AEEA-γGlu-C20 diacid])RCNTATCATQRLANFLRHSSPNFGAIPSSTNVGSHTY-NH2 (disulfide 3-8; N-terminus assumed; SMILES CC[C@H](C)[C@H](NC(=O)[C@H](C)NC(=O)CNC(=O)[C@H](Cc1ccccc1)NC(=O)[C@H](CC(N)=O)NC(=O)[C@@H]1CCCN1C(=O)[C@H](CO)NC(=O)[C@H](CO)NC(=O)[C@H](Cc1c[nH]cn1)NC(=O)[C@H](CCCNC(=N)N)NC(=O)[C@H](CC(C)C)NC(=O)[C@H](Cc1ccccc1)NC(=O)[C@H](CC(N)=O)NC(=O)[C@H](C)NC(=O)[C@H](CC(C)C)NC(=O)[C@H](CCCNC(=N)N)NC(=O)[C@H](CCC(N)=O)NC(=O)[C@@H](NC(=O)[C@H](C)NC(=O)[C@@H]1CSSC[C@H](NC(=O)[C@H](CCCNC(=N)N)NC(=O)[C@@H](N)CCCCNC(=O)COCCOCCNC(=O)CC[C@H](NC(=O)CCCCCCCCCCCCCCCCCCC(=O)O)C(=O)O)C(=O)N[C@@H](CC(N)=O)C(=O)N[C@@H]([C@@H](C)O)C(=O)N[C@@H](C)C(=O)N[C@@H]([C@@H](C)O)C(=O)N1)[C@@H](C)O)C(=O)N1CCC[C@H]1C(=O)N[C@@H](CO)C(=O)N[C@@H](CO)C(=O)N[C@H](C(=O)N[C@@H](CC(N)=O)C(=O)N[C@H](C(=O)NCC(=O)N[C@@H](CO)C(=O)N[C@@H](Cc1c[nH]cn1)C(=O)N[C@H](C(=O)N[C@@H](Cc1ccc(O)cc1)C(N)=O)[C@@H](C)O)C(C)C)[C@@H](C)O, also called compound 45) | 14.8 nM | – | –
KCNTATCATQRLAEFLRHSSPNFGAIPSSTNVGSNTY (C20 diacid-gGlu on the alpha amino group of the N-terminal residue; disulfide bridge Cys2-Cys7; C-terminal amide, also called compound 9) [N^α1-[(4S)-4-carboxy-4-(19-carboxynonadecanoylamino)butanoyl]-[Glu14,Arg17,Pro21,Pro27]-h-amylin] | – | 8 | 1.14 nM
